Source: US20160046723A1 (BIONOMICS, published 2016)
Numbering of substitutions follows the chain as printed. One block for each binder: values may come before it.

Legend:
[1] = molecular target: T1, human LGR4 on the cell surface (recombinant on CHO cells; endogenous on HEK-293T cells) (human, UniProt Q9BXB1 25-951); assay: flow cytometry on CHO-LGR4 cells, PE anti-rat IgG secondary
T1 construct: also called CHO-LGR4; GPR48
Procedure: (§1) A flow cytometry-based assay was used to measure the binding of purified anti-LGR4 antibodies 1C5 and 8F3 to recombinant human LGR4 protein overexpressed on the surface of CHO cells. CHO and CHO-LGR4 cells were stained with serial dilutions of anti-LGR4 antibodies at 4° C. Surface staining was detected with PE-conjugated anti-rat IgG secondary antibodies and analyzed on the FACSCalibur (FIG. 4A and FIG. 4B). […] An antibody control (pooled rat IgG) was used as a negative isotype control in these experiments as well as wild-type CHO without LGR4.

[2] = molecular target: T2, recombinant human LGR4 ectodomain-IgG-Fc fusion (R&D Systems) (human, UniProt Q9BXB1 25-540, limits assumed); assay: BLI (Octet QK), biotinylated antibody on streptavidin tips, LGR4-Fc in solution, 1:1 global fit
T2 construct: Bought construct; also called Human LGR4-Fc; LGR4-Fc; not shown: IgG Fc; detected with anti-human IgG Fc antibody
Procedure: (§2) Binding kinetics of LGR4 antibodies to human and mouse LGR4 were determined using label-free plate-based Octet QK instrument (Pall ForteBio, LLC, Menlo Park, Calif.) at 30 degrees. Biotinylated 1C5 and 8F3 LGR4 antibodies were diluted to 5 μg/mL in 1×PBS and immobilized on streptavidin tips (Pall ForteBio, LLC, Menlo Park, Calif.). Plate shaking speed was 1000 rpm. The antibodies were captured on the tips for 150 sec. To establish a baseline, the tips were transferred into wells containing binding buffer (1×PBS, supplemented with 0.1% bovine serum albumin and 0.05% Tween 20) for 60 sec. Human LGR4-Fc (R&D Systems) and mouse LGR4-Fc (R&D Systems) were diluted in binding buffer to 80 nM, 40 nM, 20 nM, 10 nM, 5 nM to make a concentration series. Additionally, a buffer-only well was used as reference. 1C5 and 8F3-coated tips were transferred into wells containing human LGR4 and mouse LGR4 dilution series for 180 sec to measure receptor association. The tips were then dipped into binding buffer for 300 sec to measure receptor dissociation.
(§3) Data were collected using ForteBio Data Acquisition software v7.1 and analyzed using ForteBio Data Analysis software v7.1. Data were referenced by subtracting signal from the buffer sample, and fitted to a 1:1 binding model using global fitting with unlinked Rmax. The experiment was repeated three times. Sample curve fits, kinetic rate constants, and KD for 1C5 and 8F3 LGR4 antibodies are shown below in Table 5.

[3] = molecular target: T3, recombinant mouse LGR4 ectodomain-IgG-Fc fusion (R&D Systems) (mouse, UniProt A2ARI4 25-540, limits assumed); assay: as above
T3 construct: extracellular domain; Bought construct; also called mouse LGR4-Fc; murine LGR4; not shown: IgG Fc
Procedure: as §2, §3

[4] = molecular target: T2, recombinant human LGR4 …; assay: ELISA, plate coated with 0.5 ug/mL hLGR4-Fc, biotinylated antibody detected with streptavidin-HRP
Procedure: (§4) Binding of the anti-LGR4 antibodies to human and murine LGR4 was assessed in vitro using an ELISA-based plate binding assay. The assay measured biotinylated antibody binding to ELISA plate-bound purified recombinant, LGR4 ectodomain-IgG-Fc fusion, with detection of LGR4-bound antibody with horseradish peroxidase-conjugated streptavidin. […] Binding data from two of the antibodies, 8F3 and 1C5 are shown in FIGS. 5A and 5B, respectively.

[5] = molecular target: T3, recombinant mouse LGR4 …; assay: ELISA, plate coated with 0.5 ug/mL mLGR4-Fc, biotinylated antibody detected with streptavidin-HRP
Procedure: as §4

[6] = molecular target: T2, recombinant human LGR4 …; assay: BLI (Octet QK), biotinylated antibody on streptavidin tips, LGR4-Fc 5-80 nM in solution, 1:1 global fit, 30 degrees
Procedure: as §2, §3

[7] = molecular target: T3, recombinant mouse LGR4 …; assay: as above
Procedure: as §2, §3

[8] = molecular target: T2, recombinant human LGR4 …; assay: BLI (Octet QK), biotinylated antibody on streptavidin tips, LGR4-Fc in solution; exponent as printed (E+04), KD fits E-04
Procedure: as §2
as §3, with “Sample curve fits, kinetic rate constants, and KD for 1C5 and 8F3 LGR4 antibodies are shown below in Table 5.” left out

[9] = molecular target: T1, human LGR4 on the cell surface …; assay: flow cytometry on CHO-LGR4 cells, PE anti-rat IgG secondary [printed FIB. 4B]
Procedure: as §1

[10] = molecular target: T2, recombinant human LGR4 …; assay: BLI (Octet QK); receptor printed 'Human LGR4' a second time for 8F3, possibly mouse LGR4
Procedure: as §2
as §3, with “Sample curve fits, kinetic rate constants, and KD for 1C5 and 8F3 LGR4 antibodies are shown below in Table 5.” left out

[11] = molecular target: T2, recombinant human LGR4 …; assay: BLI (Octet QK), biotinylated antibody on streptavidin tips, LGR4-Fc in solution; receptor printed 'Human LGR4' a second time for 8F3, possibly mouse LGR4
Procedure: as §2
as §3, with “Sample curve fits, kinetic rate constants, and KD for 1C5 and 8F3 LGR4 antibodies are shown below in Table 5.” left out

[12] = molecular target: T2, recombinant human LGR4 …; assay: ELISA, plate coated with 2 or 1 ug/mL hLGR4-Fc, detected with HRP anti-human IgG-CH1
Procedure: (§5) Binding of the humanized anti-LGR4 antibodies 1C5HE and 1C5HG to human and LGR4 was assessed in vitro using an ELISA-based plate binding assay. The assay measured antibody binding to ELISA plate-bound purified recombinant LGR4 ectodomain-IgG-Fc fusion (R&D Systems), with detection of LGR4-bound antibody with horseradish peroxidase-conjugated anti-human IgG-CH1 secondary antibody.

[13] = molecular target: T2, recombinant human LGR4 …; assay: ELISA, plate coated with 2 ug/mL hLGR4-Fc, detected with HRP anti-human IgG-CH1
Procedure: as §5

B1: anti-LGR4 rat monoclonal antibody 1C5 (antibody, V domains shown)
VH: QVQLQQSGAELVKPGSSVKISCKASGYTFTSNFMHWIKQQPGNGPEWIGWIYPGDGDTEYNQKFNGKATLIADKSSTTAYMQLRSLTSEDSAVYFCARGNSGYNWFAYWGQGTLVTVSS
VL: DIQMTQSPPVLSASVGDRVTLSCKASQNINKNLDWYQQKHGEAPRLLIYYTNNLQTGIPSRFSGSGSGTDYTLTISSLQPEDVATYFCYQYKSGNTFGAGTKLELK
notes: Rat monoclonal antibody purified from hybridoma supernatant; also called 1C5 mAb; biotinylated 1C5
- EC50 (read off the curve) [1]: ~0.2 nM
- Kd [2]: 1.47 nM
- Kd [3]: 1.31 nM
- EC50 (read off the curve) [4]: ~0.1 nM
- EC50 (read off the curve) [5]: ~0.1 nM
- kon [6]: 438000 M⁻¹ s⁻¹
- kon [7]: 339000 M⁻¹ s⁻¹
- koff [8]: 0.000635 s⁻¹

B2: anti-LGR4 rat monoclonal antibody 8F3 (antibody, V domains shown)
VH: B1 VH with N32Y, M34I, P45L, L70F, T77S, Y80D, R84N, G99S, N100K, G102A
VL: B1 VL with Q37H, R45K, T74I, F87Y, K92N, N95P, A99T
notes: Rat monoclonal antibody purified from hybridoma supernatant; also called 8F3 mAb; biotinylated 8F3
- EC50 (read off the curve) [9]: ~0.2 nM
- Kd [10]: 0.47 nM
- Kd [2]: 0.47 nM
- EC50 (read off the curve) [4]: ~0.1 nM
- EC50 (read off the curve) [5]: ~0.08 nM
- kon [6]: 397000 M⁻¹ s⁻¹
- kon [11]: 357000 M⁻¹ s⁻¹

Further lines, results first:

- binding result [12]: binds
B3: humanized anti-LGR4 antibody 1C5HG (antibody, human IgG1, V domains shown)
VH: EVQLVQSGAEVKKPGESLKISCKGSGYTFTSNFMHWVRQMPGKGLEWIGWIYPGDGDTEYNQKFNGKVTISADKSISTAYLQWSSLKASDTAMYYCARGNSGYNWFAYWGQGTTVTVSS
VL: EIVMTQSPATLSVSPGERATLSCKASQNINKNLDWYQQKPGQAPRLLIYYTNNLQTGIPARFSGSGSGTEFTLTISSLQSEDFAVYYCYQYKSGNTFGQGTKLEIK
notes: VH fused to the human IgG1 constant region, VL fused to the human kappa constant region; recombinant IgG from HEK 293 cells

- EC50 (read off the curve) [13]: ~2 nM
B4: humanized anti-LGR4 antibody 1C5HE (antibody, human IgG1, V domains shown)
VH: QVQLVQSGAEVKKPGASVKVSCKASGYTFTSNFMHWVRQAPGQGLEWIGWIYPGDGDTEYNQKFNGKVTMTRDTSTSTVYMELSSLRSEDTAVYYCARGNSGYNWFAYWGQGTTVTVSS
VL: B3 VL
notes: as for B3
